Data reported in article PMC5147862.

Biological target: KRAS, mGppNHp-bound (human) (UniProt P01116)
Experiment: fluorescence polarisation; MBP-tagged effector domain (0.05-100 μM) titrated to 1 μM RAS-mGppNHp; 50 mM Tris/HCl pH 7.5, 100 mM NaCl, 5 mM MgCl2, 3 mM dithiothreitol, 25°C; quadratic ligand binding equation

Kd: 421 nM
B1: RAS association (RA) domain of RASSF5, MBP fusion (domain or fragment)
chain: EETQRPPTLQEIKQKIDSYNTREKNCLGMKLSEDGTYTGFIKVHLKLRRPVTVPAGIRPQSIYDAIKEVNLAATTDKRTSFYLPLDAIKQLHISSTTTVSEVIQGLLKKFMVVDNPQKFALFKRIHKDGQVLFQKLSIADRPLYLRLLAGPDTEVLSFV
